From patent publication US5457092A, “Methods of promoting bone growth in mammals comprising administration of modified parathyroid hormone” (Gesellschaft fur Biotechnologische Forschung mbH (GBF), priority 1987, dated 1995) come the findings set out here.

The subject of series [1] is osteoblast enriched rat embryo calvaria cell cultures. In words: Cyclic AMP production in rat embryo calvaria cell cultures. The series is classed as cell-based. To be noted: 100 nM; 15 min; control 29 ± 2.9 pmol/mg of protein. The method in brief: (§1)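 Osteoblast-enriched rat embryo calvaria cultures stimulated with PTH fragments from the central portion of the molecule. Cyclic AMP measured 15 min after stimulation; CK specific activity measured 24 h after stimulation. Values are means ±S.E.M., N≥5, compared with controls by Student's T test.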

The test system is the same in series [2]. In words: CK specific activity in rat embryo calvaria cell cultures. The series is classed as cell-based. The gist of the method: as §1
The test system is the same in series [3]. In words: DNA synthesis ([3H]thymidine incorporation) in rat embryo calvaria cell cultures. The series is classed as cell-based. The gist of the method:
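Cultures stimulated with bPTH (1-84); [3H]thymidine incorporation into DNA measured 24 h after stimulation. Values are means ±S.E.M., N≥5, compared with controls by Student's t test.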
On the technique in general: Dividing cells build labelled thymidine or BrdU into new DNA.

Series [4] deals with rat epiphysial cartilage cell cultures. In words: CK specific activity in rat epiphysial cartilage cell cultures. The series is classed as cell-based. Here is the method:
To compare the stimulations seen in osteoblast-like cells (FIGS. 10 and 11) with PTH effects in a cartilage system, cultures of rat epiphysial cartilage cells were incubated with full-length PTH and selected PTH fragments (Table 3). CK activity was stimulated by bPTH(1-84) and hPTH(28-48) but not by hPTH(25-39) or hPTH(34-47). […] The comparison between the complete molecule and the mid-regional fragment hPTH (28-48) is similar to but not identical with the results obtained for calvaria cell cultures (FIGS. 10 and 11) and in the chick sternum chondrocyte system; cf. Biochem. J., 252 (1988) 263-268 (11; Farndale et al.),

For series [5] the test system is unchanged. In words: DNA synthesis in rat epiphysial cartilage cell cultures. The class given is cell-based. To be noted: 10 nM; control 350 ± 25.
Series [6] concerns ROS 17/2.8 osteoblast-like cells. In words: Cyclic AMP production in ROS 17/2.8 osteoblast-like cells. The class given is cell-based, rat. Here is the method:
When cultures of the widely used model for osteoblasts, the osteoblast-likeclone of rat osteosarcoma, ROS 17/2.8 (Endocrinology (Baltimore), 107 (1980) 1494-1503=12; Majeska et al.), were incubated with full-length PTH and PTH fragments (Table 4), cyclic AMP production was stimulated only by bPTH(1-84) and hPTH(1-34), whereas hPTH(25-39), hPTH(27-48), hPTH(28-48) and hPTH(34-47) were ineffective.

For series [7] the test system is unchanged. In words: CK specific activity in ROS 17/2.8 osteoblast-like cells. To be noted: 10 nM; control 698 ± 70 nmol/min per mg of protein. The series is classed as cell-based, rat.
Series [8] has the same test system. In words: DNA synthesis in ROS 17/2.8 osteoblast-like cells. The class given is cell-based, rat. The settings on record: 10 nM; control 392 ± 58 c.p.m./μg of DNA.
Series [9] deals with rat organs (epiphysis, diaphysis, kidney). In words: [3H]thymidine incorporation into DNA in rat organs after i.p. injection. The series is classed as in vivo. To be noted: 22-24 h after injection. The protocol:
FIG. 12 is a graph showing the time course of stimulation by hPTH (1-34) of DNA synthesis in rat organs. Female rats (20-25 days old) were injected i.p. with hPTH-(1-34) (2 μg/rat). At 2 h before the times indicated, the rats were killed and organs were removed and incubated in 2 ml of Dulbecco's modified Eagle's medium containing 5 μl of [^3 H]thymidine. (Amersham: 5 Ci/mmol) for 2 h, then washed with medium and homogenized in deionized distilled water. The total uptake of [^3 H]thymidine and acid-insoluble radioactivity was measured, as well as DNA content, as described below. , Diaphysis; O, epiphysis; Δ; kidney. P<0.01 versus controls.
The pieces were then incubated for 2 h more (the time indicated in FIG. 12) with [^3 H]thymidine (5 μci/ml; 5 Ci/mmol) at 37° C. in Dulbecco's modified Eagle's medium under an atmosphere Of […] /95% air. Total [^3 H]thymidine uptake and incorporation into trichloroacetic acid-insoluble material was measured as described in Biochem. J., 214 (1983) 293-298 (16; Somjen et al.). At no time including the 22 24 h pulse, was there any significant change in the total uptake of [^3 H]thymidine which reflects changes in the thymidine pool which, in turn, could account for changes in incorporation. DNA was determined by the Burton method; cf. Biochem. J., 62 (1956) 315-323 (17; Burton).
To corroborate that under the circumstances of these experiments the increase in CK specific activity in bone is indeed a valid marker of cell proliferation, changes in DNA synthesis were measured by [^3 H]thymidine incorporation; cf. Biochem. J., 272 (1990) 781-785 (18; Somjen et al.). The earliest time at which PTH increased [^3 H]thymidine incorporation was determined by in-jecting rats with an optimal dose of 2 μp of PTH(1-34)/rat, equivalent to 13 nM (FIG. 14) and measuring 2 h pulses of [^3 H)thymidine incorporation into DNA (FIG. 12).

The test system is the same in series [10]. Described as above. The series is classed as in vivo. To be noted: rat, 22-24 h after injection of 3.5 μg.

B1: bPTH(1-84): full-length (complete) parathyroid hormone, bovine source; comparative example (protein, UniProt P01268 32-115, looked up)
Parathyroid hormone: AVSEIQFMHNLGKHLSSMERVEWLRKKLQDVHNFVALGASIAYRDGSSQRPRKKEDNVLVESHQKSLGEADKADVDVLIKAKPQ
modifications: Parathyroid hormone
Turning to B1, the “Cyclic AMP concentration, effect of fragment (experimental value/control value)” value in series [1] is given as 3.74 ± 0.30. Besides, the “CK specific activity, effect of fragment (experimental value/control value)” value is reported as 2.27 ± 0.09 in series [2] (100 nM, 24 h, control 457 ± 46 nmol/min per mg of protein) and 1.92 ± 0.11 in series [7]. In [2] (treated for 24 h), the “increase of CK activity (in words)” value is reported as “maximally active”. Moreover, in series [3], the “stimulation of DNA synthesis (in words)” value is on record as “maximal”. Besides, the “[3H)Thymidine incorporation, effect of fragment (experimental value/control value)” value in series [3] (100 nM, 24 h, control 624 ± 73 c.p.m./μg of DNA) is listed as 2.61 ± 0.11. In [4], the “stimulation of CK activity (in words)” value was “stimulated”. The CK specific activity in series [4] (10 nM, control 225 ± 32) is given as 389 ± 39 nmol/min per mg of protein. The “[^3 H]Thymidine incorporation into DNA” value in [5] was found to be 556 ± 50 c.p.m./plate. The “stimulation of cyclic AMP production (in words)” value in [6] is “stimulated”. Further, the “Cyclic AMP, effect of fragment (experimental value/control value)” value in series [6] (10 nM, control 29 ± 5.2 pmol/mg of protein) amounted to 4.60 ± 0.10. Further, the “[^3 H]Thymidine incorporation, effect of fragment (experimental value/control value)” value in series [8] worked out at 1.71 ± 0.18. Moreover, the “stimulation of DNA synthesis in the kidney (in words)” value in series [9] is listed as “no significant stimulation”. Also, the “[^3 H]thymidine incorporation into DNA, Kidney” value in [10] (control 9.0 ± 2.1) is recorded as 11.8 ± 2.4 c.p.m./pg of DNA. Also, in series [10] (control 24.1 ± 3.8), the “[^3 H]thymidine incorporation into DNA, Diaphysis” value was 43.4 ± 4.7 c.p.m./pg of DNA. Further, in series [10] (control 25.8 ± 5.2), the “[^3 H]thymidine incorporation into DNA, Epiphysis” value was 40.7 ± 3.3 c.p.m./pg of DNA.
